The text below walks through data of IntAct's records for PubMed 38123684.

The labels stand for the following.
B1: cAMP-regulated phosphoprotein 19 (Homo sapiens), P56211 (parent)
chain: MSAEVPEAASAEEQKEMEDKVTSPEKAEEAKLKARYPHLGQKPGGSDFLRKRLQKGQKYFDSGDYNMAKAKMKNKQLPTAAPDKTEVTGDHIPTPQDLPQRKPSLVASKLAG
partner: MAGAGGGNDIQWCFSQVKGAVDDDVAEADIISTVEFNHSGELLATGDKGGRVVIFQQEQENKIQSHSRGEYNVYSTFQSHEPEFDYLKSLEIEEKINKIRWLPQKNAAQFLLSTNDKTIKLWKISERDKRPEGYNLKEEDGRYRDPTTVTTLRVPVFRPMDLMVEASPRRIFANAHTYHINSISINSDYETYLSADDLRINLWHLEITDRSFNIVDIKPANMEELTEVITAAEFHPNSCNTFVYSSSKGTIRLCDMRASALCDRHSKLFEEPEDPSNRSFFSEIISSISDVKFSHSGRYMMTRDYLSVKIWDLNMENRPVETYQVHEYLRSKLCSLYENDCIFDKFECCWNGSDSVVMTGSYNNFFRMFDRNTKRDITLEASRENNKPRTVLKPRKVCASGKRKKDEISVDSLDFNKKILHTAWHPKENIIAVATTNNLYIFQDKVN

The variants in the assay derive from B1. As to conditions: with 2aba_human PPP2R2A.
Take S62E: the “effect of a mutation on the interaction” value is recorded as “with no effect”.
